One assay concerns 3T3 fibroblasts. The assay can be described thus: 3T3 fibroblast spreading. Type of assay: cell-based, mouse. The following applies: substrate-bound / coated surfaces. The procedure: (a) is a schematic diagram which summarizes features of the Nogo proteins utilized in this study. (b) is a photograph of NIH-3T3 fibroblasts cultured on surfaces coated with Amino-Nogo, GST-Nogo-66 or no protein and stained for filamentous actin (scale bar, 40 μm). (c) is a photograph of chick E12 dorsal root ganglions cultured on surfaces coated with Amino-Nogo, GST-Nogo-66 or no protein (substrate-bound) or with 100 nM Nogo protein (soluble) (scale bar, 40 μm). (d) is a photograph of a gel and an immunoblot where purified Amino-Nogo-Myc-His protein was subjected to SDS-PAGE and stained with Commassie Brilliant Blue (CBB) or immunoblotted with anti-Myc antibodies (Myc) (molecular weight markers of 200, 116, 97, 65 & 45 kDa are at left). (e) is a graph displaying experimental data where the percentage of 3T3 fibroblasts with an area greater than 1200 μm^2 (spread) was measured from experiments as in (b) on Nogo-coated surfaces (black) or with soluble 100 nM Nogo preparations (blue) (AM, Amino-Nogo; AM+Myc, Amino-Nogo preincubated with anti-Myc antibody; AM+Myc+Mo, AM+Myc preincubated with anti-mouse IgG antibody; Myc+Mo, anti-Myc antibody plus anti-murine IgG antibody). (f) is a graph displaying experimental data where the percentage of spread COS-7 cells was determined after culture on Nogo-coated surfaces or with soluble 100 nM Nogo preparations. (g) is a graph displaying experimental data where the effects of purified preparations of GST-Nogo-66 or Amino-Nogo on growth cone morphology was assessed in E12 dorsal root ganglion cultures at the indicated concentrations after thirty minutes. […] (h) is a graph displaying experimental data where the neurite outgrowth per cell in […] dorsal root ganglion cultures was quantitated from experiments as in (c) on Nogo-coated surfaces or with soluble 100 nM Nogo preparations. (i) is a graph displaying experimental data where the effects of Nogo preparations on neurite outgrowth in cerebellar granule neurons was measured.
Assays of Nogo-A function have included growth cone collapse, neurite outgrowth, and fibroblast spreading with substrate-bound and soluble protein preparations (Caroni & Schwab, (1988) J. Cell Biol. 106, 1281-1288; GrandPré et al., (2000) Nature 403, 439-444; Chen et al., (2000) Nature 403, 434-439; Prinjha et al., (2000) Nature 403, 483-484). […] Since NI250 preparations and full length Nogo-A are non-permissive for 3T3 spreading, it was necessary to consider whether different domains of Nogo might subserve this in vitro activity. To facilitate a comparison of different Nogo-A domains, the acidic amino terminal 1040 amino acid fragment (Amino-Nogo) was expressed as a Myc-his tagged protein in HEK293T cells (FIG. 1d). The Nogo protein is present in cytosolic fractions. […]

In the next assay the target is T1, mouse NgR (Mus musculus, UniProt Q99PI8).
T1 construct: expressed in transfected cells; host or cells: COS-7
T1 sequence (Q99PI8 27-473): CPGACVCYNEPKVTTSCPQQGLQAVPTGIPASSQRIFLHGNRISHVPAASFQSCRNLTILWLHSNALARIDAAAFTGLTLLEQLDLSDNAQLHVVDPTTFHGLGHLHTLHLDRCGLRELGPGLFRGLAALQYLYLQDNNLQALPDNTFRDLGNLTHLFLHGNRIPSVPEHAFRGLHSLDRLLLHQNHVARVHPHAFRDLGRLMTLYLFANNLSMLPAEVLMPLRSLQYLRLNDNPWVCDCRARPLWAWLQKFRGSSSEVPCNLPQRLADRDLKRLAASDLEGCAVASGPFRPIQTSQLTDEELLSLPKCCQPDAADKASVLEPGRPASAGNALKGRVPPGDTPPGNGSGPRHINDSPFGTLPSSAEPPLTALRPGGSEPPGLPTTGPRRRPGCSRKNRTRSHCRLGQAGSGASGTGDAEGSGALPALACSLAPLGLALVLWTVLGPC
The assay can be described thus: AP-fusion protein binding to COS-7 cells expressing mouse NgR. On the procedure: To determine if AP-fused deletion mutants of Nogo-66 bind mouse NgR (“mNgR”), COS-7 cells were transfected with a plasmid encoding the mouse NgR sequence ligated into pcDNA3.1. 48 hours after transfection, cells were washed with HBH (Hanks balanced salt solution containing 20 mM sodium Hepes, pH 7.05, and 1 mg ml^−1 bovine serum albumin) and then incubated with condition medium containing one of the AP-fusion proteins described above for 2 hours at 37° C. Cells were then washed, fixed, and left in HBH at 67° C. for 14-16 h to inactivate endogenous AP. AP-fusion protein binding to NgR expressing COS-7 cells was detected with the substrates NBT and BCIP (FIG. 13b).
To determine whether mNgR or mNgR deletion mutants bound to hNogo-A (1055-1120), wtNgR or mNgR deletion mutants were transfected into COS-7 cells. Forty-eight hours after the transfection, the transfected COS-7 cells were washed with hanks balanced salt solution containing 20 mM sodium HEPES, pH 7.05, and 1 mg/ml bovine serum albumin (BSA) [hereinafter “HBH”]. Cells were then incubated for 2 hours at 23° C. with a conditioned medium enriched with purified AP-hNogo-A (1055-1120) diluted in HBH. AP-fusion protein was detected as previously described for AP-Sema3A (Takahashi et al., Nature Neurosci. 1:487-493, 1998).

Like-named read-outs stand apart in the source and are kept apart here.

B1: GST-Nogo: GST fusion protein of the 66 amino acid lumenal-extracellular fragment of Nogo-A, expressed in E. coli (protein)
chain: RIYKGVIQAIQKSDEGHPFRAYLESEVAISEELVQKYSNSALGHVNCTIKELRRLFLVDDLVDSLK
modifications: also: GST fusion protein
notes: GST fusion protein of the 66 amino acid lumenal-extracellular fragment of Nogo-A, expressed in E. coli
For the molecule B1, in the assay on 3T3 fibroblasts, the “3T3 fibroblast spreading (in words)” value was “does not inhibit spreading”.

B2: AP-Nogo: fusion protein of His6 tag, placental alkaline phosphatase (AP) and the 66 amino acid active domain of Nogo (protein)
chain: HHHHHHIIPVEEENPDFWNREAAEALGAAKKLQPAQTAAKNLIIFLGDGMGVSTVTAARILKGQKKDKLGPEIPLAMDRFPYVALSKTYNVDKHVPDSGATATAYLCGVKGNFQTIGLSAAARFNQCNTTRGNEVISVMNRAKKAGKSVGVVTTTRVQHASPAGTYAHTVNRNWYSDADVPASARQEGCQDIATQLISNMDIDVILGGGRKYMFRMGTPDPEYPDDYSQGGTRLDGKNLVQEWLAKRQGARYVWNRTELMQASLDPSVTHLMGLFEPGDMKYEIHRDSTLDPSLMEMTEAALRLLSRNPRGFFLFVEGGRIDHGHHESRAYRALTETIMFDDAIERAGQLTSEEDTLSLVTADHSHVFSFGGYPLRGSSIFGLAPGKARDRKAYTVLLYGNGPGYVLKDGARPDVTESESGSPEYRQQSAVPLDEETHAGEDVAVFARGPQAHLVHGVQEQTFIAHVMAFAACLEPYTACDLAPPAGTTDAAHPGRIYKGVIQAIQKSDEGHPFRAYLESEVAISEELVQKYSNSALGHVNCTIKELRRLFLVDDLVDSLK
On to B2, for which the “binding to NgR expressing COS-7 cells (in words)” value with mouse NgR was “selective binding”; with mouse NgR (listed as AP-hNogo-A (1055-1120)), “bound”.

These data come from patent US8394929B2, “Nogo receptor-mediated blockade of axonal growth” (Yale University, priority 2000, dated 2013).
